# B1: N-acetyllactosaminide beta-1,3-N-acetylglucosaminyltransferase 2 (Homo sapiens), Q9NY97 (parent)
# chain: MSVGRRRIKLLGILMMANVFIYFIMEVSKSSSQEKNGKGEVIIPKEKFWKISTPPEAYWNREQEKLNRQYNPILSMLTNQTGEAGRLSNISHLNYCEPDLRVTSVVTGFNNLPDRFKDFLLYLRCRNYSLLIDQPDKCAKKPFLLLAIKSLTPHFARRQAIRESWGQESNAGNQTVVRVFLLGQTPPEDNHPDLSDMLKFESEKHQDILMWNYRDTFFNLSLKEVLFLRWVSTSCPDTEFVFKGDDDVFVNTHHILNYLNSLSKTKAKDLFIGDVIHNAGPHRDKKLKYYIPEVVYSGLYPPYAGGGGFLYSGHLALRLYHITDQVHLYPIDDVYTGMCLQKLGLVPEKHKGFRTFDIEEKNKNNICSYVDLMLVHSRKPQEMIDIWSQLQSAHLKC
# partner: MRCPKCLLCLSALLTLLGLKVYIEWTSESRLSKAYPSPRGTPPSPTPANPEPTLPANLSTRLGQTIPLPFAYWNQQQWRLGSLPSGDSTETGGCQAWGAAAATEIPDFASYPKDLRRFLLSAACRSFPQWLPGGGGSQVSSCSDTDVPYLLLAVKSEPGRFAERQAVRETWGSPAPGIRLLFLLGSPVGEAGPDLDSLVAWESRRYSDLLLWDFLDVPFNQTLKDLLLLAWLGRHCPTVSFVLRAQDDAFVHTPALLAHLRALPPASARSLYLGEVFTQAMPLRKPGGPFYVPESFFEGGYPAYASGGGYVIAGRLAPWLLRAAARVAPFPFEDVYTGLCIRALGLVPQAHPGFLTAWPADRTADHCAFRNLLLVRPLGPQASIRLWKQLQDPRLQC
# B2: "UDP-GlcNAc:betaGal beta-1,3-N-acetylglucosaminyltransferase 8" (Homo sapiens), Q7Z7M8 (parent)
# chain: B1 partner
# partner: B1 chain
# Variants of: B1
# Conditions: with B3GNT8, Q7Z7M8
row,Variant,effect of a mutation on the interaction
1,D245A,with no effect

# Variants of: B2
# Conditions: with B3GNT2, Q9NY97
row,Variant,effect of a mutation on the interaction
1,Q246A,with no effect

# Source: IntAct's records for PubMed 18826941
